Here are results for three molecules from patent US9695460B2, “Method of analyzing L-tryptophan in biological samples, and kit used therein” (Toyama Prefecture, priority 2011, dated 2017).

Data set [1] relates to VioA, L-tryptophan oxidase derived from Chromobacterium violaceum, SEQ ID NO: 1. To be noted: reported in Balibar and Walsh (2006) Biochemistry 45, 15444-15457; cited from earlier work.
Data set [2] has as its system L-amino acid oxidase derived from Coprinus sp. The conditions noted are these: Japanese Un-examined patent publication No. 2001-069974, read-out: Km value for L-tryptophan; cited from earlier work.
Substrate in data set [3]: N[C@@H](Cc1c[nH]c2ccccc12)C(=O)O
The data set can be described thus: Km value of L-tryptophan oxidase StaO for L-tryptophan (peroxidase-coupled, absorbance at 505 nm). The data set is classed as biochemical, Streptomyces sp. TA-A0724. The conditions noted are these: other: StaO, 20 mM tris-hydrochloric acid buffer pH 8.0, 30° C., 0-500 μM L-tryptophan, 0.5 mU/mL enzyme. The source says: StaO is an enzyme that has the amino acid sequence given in SEQ ID NO: 2 in the Sequence Listing, that has oxidase activity of acting on L-tryptophan in the presence of oxygen and water to produce hydrogen peroxide and ammonia, that has oxidase activity on L-phenylalanine falling within a range of 0 to 3% of the oxidase activity on L-tryptophan, and that has no oxidase activity on the protein-constituting amino acids other than L-tryptophan and L-phenylalanine. StaO can be derived from Streptomyces sp. TA-A0724. The gene encoding StaO was discovered in the biosynthesis gene cluster of staurosporine, an antibiotic produced by the above bacterium (Onaka, H., Taniguchi, S., Igarashi, Y., and Furumai, T. (2002) J Antibiot 55, 1063-1071). This gene has no significant homology with the VioA gene, nor is there any example of biological analysis of the genetic product. Thus, the properties of the genetic product were unknown. […]
The supernatant of each solution of the ruptured expression strains was loaded onto an Ni Sepharose column made by GE Healthcare, washed with 20 mM Tris-HCl and 50 mM imidazole (pH 8.0), and then eluted with a solution of 20 mM Tris-HCl and 500 mM imidazole (pH 8.0) to purify and recover the target enzyme. The base sequences of these enzymes were determined, and are shown as SEQ ID NOS: 3 and 4. […]

A short description of data set [4]: Dependence on reaction temperature. The data set is classed as biochemical. The protocol:
StaO and VioA activity measurement was conducted at reaction temperatures of 20, 30, 40, 50, and 60° C. An activity measurement reaction solution of 20 mM of tris-hydrochloric acid buffer (pH 8.0), 1 mM of L-tryptophan, 1 mM of phenol, 1 mM of 4-aminoantipyrine, 15 U/mL of horseradish-derived peroxidase, and L-tryptophan oxidase enzyme solution was employed. Everything in the above reaction solution but the peroxidase and L-tryptophan oxidase enzyme solution was admixed, and 10 minutes of preincubation was conducted at various temperatures. While maintaining the temperature of the reaction solution, the peroxidase and the L-tryptophan oxidase enzyme solution were added and the reaction was begun. The change in absorbance at 505 nm was rapidly measured. […] The effect of deactivation at high temperature became marked in StaO at 60° C. and in VioA at 50° C. and above, making it difficult to accurately measure the activity.

Data set [5] can be described thus: Substrate specificity for amino acids of L-tryptophan oxidase (peroxidase-coupled, absorbance at 505 nm). It counts as biochemical. The method, then:
A reaction solution of 20 mM tris-hydrochloric acid buffer (pH 8.0), 5 mM L-tryptophan, 1 mM phenol, 1 mM 4-aminoantipyrine, 15 U/mL horseradish-derived peroxidase, and some quantity of L-tryptophan oxidase enzyme solution was prepared and the change in absorbance at 505 nm was measured at 30° C. The mol absorbance coefficient of quinoneimine dye was considered to be 6.4 mM^−1·cm^−1. Activity generating 1 μmol of hydrogen peroxide per minute was defined as 1 U. The detection limit of this method was 0.5%.
Reaction solutions each containing 20 mM of tris-hydrochloric acid buffer (pH 8.0), 1 mM of phenol, 1 mM of 4-aminoantipyrine, 15 U/mL of horseradish-derived peroxidase, 0.2 to 20 mU/mL of L-tryptophan oxidase, and 0.5 mM of an amino acid (one of the 20 protein-constituting amino acids) were prepared and the change in absorbance at 505 nm was measured at 30° C. The relative activity for each amino acid was calculated from the measurement values obtained, yielding the results given in Table 1. The detection limit of this method was 0.5%.

Data set [6] is described as follows: Thermal stability (residual activity after 1 hour heat treatment). The data set is classed as physicochemical. The conditions noted are these: activity prior to heat treatment as 100, StaO in 20% glycerol, VioA in 10% glycerol. The protocol:
The activity was measured after heat treating StaO enzyme solutions containing 20% glycerol and VioA enzyme solutions containing 10% glycerol for 1 hour at 30, 40, 50, 60, and 70° C. […] At heat treatments of 50° C. and above, the residual activity dropped below the detection limit.

Data set [7] is described as follows: Stability on storage at 4° C. at various glycerol concentrations. The data set is classed as physicochemical. The protocol: Glycerol was added to final concentrations of 0 to 50% (v/v) to StaO and VioA purified enzyme solutions. The enzymatic solutions were stored at 4° C., sampled over time, and the activity was measured. The change over time in the residual activity of StaO and VioA stored in the presence of various glycerol concentrations are given in FIGS. 7 and 8.

[8] abbreviates: activity at 20° C. as 100, 1 mM L-tryptophan, pH 8.0.
[9] abbreviates: activity at 20° C. as 100, * = estimated value when greatly impacted by thermal deactivation.
Setting [10] is: 0.5 mM amino acid, pH 8.0, 30° C., No activity = at or below detection limit 0.5%.

Consider `N[C@@H](Cc1c[nH]c2ccccc12)C(=O)O` [L-tryptophan], for which the Km in data set [1] was 30 µM; in data set [2], 650 µM.

B1: StaO, L-tryptophan oxidase derived from Streptomyces sp. TA-A0724, SEQ ID NO: 2 (Streptomyces sp. TP-A0274) (protein)
chain: MTAPLQDSDGPDDAIGGPKQVTVIGAGIAGLVTAYELERLGHHVQIIEGSDDIGGRIHTHRFSGAGGPGPFAEMGAMRIPAGHRLTMHYIAELGLQNQVREFRTLFSDDAAYLPSSAGYLRVREAHDTLVDEFATGLPSAHYRQDTLLFGAWLDASIRAIAPRQFYDGLHNDIGVELLNLVDDIDLTPYRCGTARNRIDLHALFADHPRVRASCPPRLERFLDDVLDETSSSIVRLKDGMDELPRRLASRIRGKISLGQEVTGIDVHDDTVTLTVRQGLRTVTRTCDYVVCTIPFTVLRTLRLTGFDQDKLDIVHETKYWPATKIAFHCREPFWEKDGISGGASFTGGHVRQTYYPPAEGDPALGAVLLASYTIGPDAEALARMDEAERDALVAKELSVMHPELRRPGMVLAVAGRDWGARRWSRGAATVRWGQEAALREAERRECARPQKGLFFAGEHCSSKPAWIEGAIESAIDAAHEIEWYEPRASRVFAASRLSRSDRSA
notes: peroxidase-coupled assay
Turning to B1, in data set [3], the Km came to 19 μM μM.

B2: StaO: L-tryptophan oxidase with the amino acid sequence of SEQ ID NO: 2, derived from Streptomyces sp. TA-A0724, His-tagged, expressed in E. coli (protein)
chain: B1 chain
modifications: His tag; Streptomyces sp. TP-A0274
notes: TA-A0724, His-tagged, expressed in E. coli
In the case of B2, in data set [4] (setting [8]), the “Relative activity at reaction temperature 20° C.” value is recorded as 100, the “Relative activity at reaction temperature 30° C.” value was found to be 156 and the “Relative activity at reaction temperature 40° C.” value is on record as 268. In addition, in data set [4] (setting [9]), the “Relative activity at reaction temperature 50° C.” value was 427 and the “Relative activity at reaction temperature 60° C.” value was 480*. Moreover, the “Reaction temperature at which the effect of deactivation became marked” value in data set [4] (activity measurement at 20-60° C.) amounted to 60 °C. Further, the “Relative activity, L-tryptophan” value in data set [5] (0.5 mM amino acid, pH 8.0, 30° C., L-tryptophan = 100%) amounted to 100%. Besides, in data set [5] (setting [10]), the “Relative activity, L-tyrosine” value was “No activity” and the “Relative activity, other amino acids (17 listed in the footnote)” value was “No activity”. In data set [5] (relative activity below the detection limit (0.5%)), the “Reactivity to amino acids other than L-tryptophan” value is given as “did not exhibit reactivity”. Moreover, in data set [6], the “Relative (residual) activity following heat treatment at 30° C.” value is 73, the “Relative (residual) activity following heat treatment at 40° C.” value was 1 and the “Relative (residual) activity following heat treatment at ≧50° C.” value is listed as below 1. Also, in data set [7] (30% or more of glycerol added), the “Stability of enzyme solution on storage” value is “high stability”. Also, the “Stability of enzyme solution on storage” value in data set [7] (buffer only, no glycerol) is recorded as “unstable”.
